Where a chain is given by its changes, count along the chain named. Names and notes keep the numbering of the source.
T1: CCL21_HUMAN (human, UniProt O00585 24-134)
T1 sequence: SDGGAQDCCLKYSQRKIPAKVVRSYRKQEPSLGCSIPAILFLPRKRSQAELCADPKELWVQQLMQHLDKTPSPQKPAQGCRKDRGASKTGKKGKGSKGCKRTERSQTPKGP

T2: CXCL4_HUMAN (human, UniProt P02776 32-101)
T2 sequence: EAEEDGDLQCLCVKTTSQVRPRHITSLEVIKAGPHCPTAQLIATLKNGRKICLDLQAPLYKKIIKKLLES

T3: CXCL14_HUMAN (human, UniProt O95715 35-111)
T3 sequence: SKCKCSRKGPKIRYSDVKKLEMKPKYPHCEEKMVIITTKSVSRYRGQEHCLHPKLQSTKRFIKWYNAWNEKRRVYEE

T4: CXCL2_HUMAN (human, UniProt P19875 35-107)
T4 sequence: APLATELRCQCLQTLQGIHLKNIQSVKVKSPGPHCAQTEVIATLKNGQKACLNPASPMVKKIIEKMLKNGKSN

T5: CXCL9_HUMAN (human, UniProt Q07325 23-125)
T5 sequence: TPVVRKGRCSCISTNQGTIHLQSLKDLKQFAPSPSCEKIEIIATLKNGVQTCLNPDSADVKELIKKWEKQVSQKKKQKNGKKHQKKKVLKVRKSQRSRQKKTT

T6: CXCL7_HUMAN (human, UniProt P02775 59-128)
T6 sequence: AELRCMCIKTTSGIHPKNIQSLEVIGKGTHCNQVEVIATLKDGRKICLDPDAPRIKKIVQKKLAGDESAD

T7: CXCL6_HUMAN (human, UniProt P80162 38-114)
T7 sequence: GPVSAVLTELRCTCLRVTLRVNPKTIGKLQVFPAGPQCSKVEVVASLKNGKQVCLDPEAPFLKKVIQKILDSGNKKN

T8: CXCL11_HUMAN (human, UniProt O14625 22-94)
T8 sequence: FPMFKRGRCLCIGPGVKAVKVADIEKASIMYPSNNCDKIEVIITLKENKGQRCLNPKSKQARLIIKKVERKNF

T9: CXCL13_HUMAN (human, UniProt O43927 23-109)
T9 sequence: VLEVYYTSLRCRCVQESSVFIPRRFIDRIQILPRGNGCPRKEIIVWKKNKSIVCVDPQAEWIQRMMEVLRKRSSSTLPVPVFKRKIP

T10: CXCL1_HUMAN (human, UniProt P09341 35-107)
T10 sequence: T4 sequence with P2S, L3V, L20P, K27N, Q48R, M58I, K68N, N69S, G70D

T11: CXCL8_HUMAN (human, UniProt P10145 28-99)
T11 sequence: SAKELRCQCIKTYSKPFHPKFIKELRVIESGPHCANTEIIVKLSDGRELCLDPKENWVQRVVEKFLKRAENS

T12: CXCL5_HUMAN (human, UniProt P42830 41-114)
T12 sequence: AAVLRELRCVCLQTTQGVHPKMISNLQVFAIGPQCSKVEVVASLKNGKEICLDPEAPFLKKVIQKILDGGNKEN

T13: CXCL10_HUMAN (human, UniProt P02778 22-98)
T13 sequence: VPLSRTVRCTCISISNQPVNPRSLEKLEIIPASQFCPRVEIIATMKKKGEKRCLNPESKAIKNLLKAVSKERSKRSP

T14: CXCL3_HUMAN (human, UniProt P19876 35-107)
T14 sequence: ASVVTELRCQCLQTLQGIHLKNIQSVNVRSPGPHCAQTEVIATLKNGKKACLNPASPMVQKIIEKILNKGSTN

T15: CCL5_HUMAN (human, UniProt P13501 24-91)
T15 sequence: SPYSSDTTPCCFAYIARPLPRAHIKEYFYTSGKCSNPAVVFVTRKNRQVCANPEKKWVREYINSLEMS

T16: CCL24_HUMAN (human, UniProt O00175 27-104)
T16 sequence: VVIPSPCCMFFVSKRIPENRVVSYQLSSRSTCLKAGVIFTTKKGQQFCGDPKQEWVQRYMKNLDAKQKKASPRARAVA

T17: CCL28_HUMAN (human, UniProt Q9NRJ3 23-127)
T17 sequence: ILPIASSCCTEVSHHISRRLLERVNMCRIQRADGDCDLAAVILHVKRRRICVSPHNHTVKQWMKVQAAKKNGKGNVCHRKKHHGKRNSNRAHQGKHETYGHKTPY

T18: CCL16_HUMAN (human, UniProt O15467 24-120)
T18 sequence: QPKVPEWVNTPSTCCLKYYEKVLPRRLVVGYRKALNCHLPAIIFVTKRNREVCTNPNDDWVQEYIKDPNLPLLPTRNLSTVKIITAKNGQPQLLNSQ

B1: P1156:G4S:P991 (designed binder)
chain: ADDDNELFTVQYCGMNCTKDEGGTWTGCTGKKEGCKCYHESGKNYGLCLSTEYTDFSQYGNPSDSEIEAAKPKRSDTLSHGGGGSENGEGTTQPDYDNSTDYYNYEDFKCTCPAPHLNNTNGTVMKPIGCYYTCNVTRCTAPDTYPCYNLTEHQAKNLTTSPTTLCAVGNCDHGICVPNGTKELCFKAPNLEE
notes: also called two-warhead evasin
B2: P991:G4S:P1156 (designed binder)
chain: ENGEGTTQPDYDNSTDYYNYEDFKCTCPAPHLNNTNGTVMKPIGCYYTCNVTRCTAPDTYPCYNLTEHQAKNLTTSPTTLCAVGNCDHGICVPNGTKELCFKAPNLEEGGGGSADDDNELFTVQYCGMNCTKDEGGTWTGCTGKKEGCKCYHESGKNYGLCLSTEYTDFSQYGNPSDSEIEAAKPKRSDTLSH
B3: P1243:G4S:P1156 (designed binder)
chain: RNHTEDNSTEYYDYEEARCACPARHLNNTNGTVLKLLGCHYFCNGTLCTAPDGYPCYNLTAQQVRTLTTYPNTSCAVGVCMKGTCVKNGTMEQCFKTPGGGGSADDDNELFTVQYCGMNCTKDEGGTWTGCTGKKEGCKCYHESGKNYGLCLSTEYTDFSQYGNPSDSEIEAAKPKRSDTLSH

Experiments:
Assay in all cases: BLI
[1] = molecular target: CCL11_HUMAN (human, UniProt P51671 24-97)
[2] = molecular target: T1, CCL21_HUMAN
[3] = molecular target: CCL7_HUMAN (human, UniProt P80098 24-99)
[4] = molecular target: T2, CXCL4_HUMAN
[5] = molecular target: T3, CXCL14_HUMAN
[6] = molecular target: T4, CXCL2_HUMAN
[7] = molecular target: CXCL12_HUMAN (human, UniProt P48061 22-89)
[8] = molecular target: T5, CXCL9_HUMAN
[9] = molecular target: T6, CXCL7_HUMAN
[10] = molecular target: T7, CXCL6_HUMAN
[11] = molecular target: T8, CXCL11_HUMAN
[12] = molecular target: T9, CXCL13_HUMAN
[13] = molecular target: T10, CXCL1_HUMAN
[14] = molecular target: T11, CXCL8_HUMAN
[15] = molecular target: T12, CXCL5_HUMAN
[16] = molecular target: T13, CXCL10_HUMAN
[17] = molecular target: T14, CXCL3_HUMAN
[18] = molecular target: T15, CCL5_HUMAN
[19] = molecular target: T16, CCL24_HUMAN
[20] = molecular target: T17, CCL28_HUMAN
[21] = molecular target: T18, CCL16_HUMAN

CCL7_HUMAN, sequence (P80098 24-99 limits assumed): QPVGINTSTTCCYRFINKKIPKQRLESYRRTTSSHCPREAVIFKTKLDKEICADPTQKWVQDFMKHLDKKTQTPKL
CCL11_HUMAN, sequence (P51671 24-97 limits assumed): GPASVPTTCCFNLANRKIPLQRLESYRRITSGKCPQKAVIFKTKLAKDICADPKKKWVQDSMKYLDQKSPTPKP
CXCL12_HUMAN, sequence (P48061 22-89 limits assumed): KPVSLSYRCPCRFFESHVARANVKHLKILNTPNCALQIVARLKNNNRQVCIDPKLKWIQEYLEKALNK

Binder | Kd [1] | RT [1] | Kd [2] | RT [2] | Kd [3] | RT [3] | binding result [4] | binding result [5] | RT [6] | binding result [7] | binding result [8] | binding result [9] | binding result [10] | binding result [11] | binding result [12] | Kd [13] | RT [13] | Kd [14] | RT [14] | RT [15] | further results
B1 | 1.54 nM | 24.8 min | 19.9 nM | 15.3 min | 0.435 nM | 231 min | no binding | no binding | 2.89 min | no binding | no binding | no binding | no binding | no binding | no binding | 2.72 nM | 30.3 min | 1.5 nM | 71.3 min | 3.08 min | binding result [16]: no binding; Kd [17]: 61.4 nM; RT [17]: 3.61 min
B2 | 1.39 nM | 30.6 min | 18.2 nM | 17.7 min | 0.287 nM | 375 min | no binding | no binding | 2.32 min | no binding | no binding | no binding | no binding | no binding | no binding | 5.08 nM | 21 min | 3.56 nM | 36.8 min | 2.32 min | binding result [16]: no binding; Kd [17]: 89.9 nM; RT [17]: 3.28 min
B3 | – | – | – | – | – | – | – | – | – | – | – | – | – | – | – | – | – | – | – | – | Kd [18]: 8.95 nM; Kd [19]: 16.4 nM; binding result [20]: no binding (tested: 300 nM); binding result [21]: no binding (tested: 300 nM)

Source: patent US20240034757A1 (OXFORD UNIVERSITY INNOVATION, published 2024)
